According to US20220289846A1 (ZYDUS LIFESCIENCES, published 2022):

Molecular target: T1, Human PD-1 (AcroBiosystems) (human, UniProt Q15116 25-167, limits assumed)
T1 construct: Bought recombinant protein, amine-coupled to the SPR chip
Test: SPR (ProteOn XPR), human PD-1 amine-coupled on GLC chip, antibody as analyte, Langmuir model
Procedure: Human PD-1 (AcroBiosystems) was directly immobilized onto the GLC Chip (ProteOn) using amine-coupling method to obtain a ligand immobilization level of about 500 RU. 10 mM Phosphate Buffered Saline (PBS) (10mM phosphate buffer, pH 7.4, 300 mM NaCl, 0.005% Surfactant P20) was used as the running buffer to carry out the kinetic measurements. All the one step purified antibody samples were diluted in running buffer described above at a suitable concentration in series of concentrations from 10 nM to 0.09 nM. These samples were injected over the chip at a flow rate of 50 μL/min with an association time of 300 s and dissociation time of 1800s. After each sample run, the chip surface was regenerated with 10mM Glycine Buffer pH 1.5 for 18 sec at a flow rate of 100 μL/min.
KD values (Kinetic constants) were determined as the ratio of dissociation rate (kd) to association rate (ka), i.e. KD =kd/ka using ProteOn manager software v3.1.0.6.

T1 sequence (Q15116 25-167 limits assumed): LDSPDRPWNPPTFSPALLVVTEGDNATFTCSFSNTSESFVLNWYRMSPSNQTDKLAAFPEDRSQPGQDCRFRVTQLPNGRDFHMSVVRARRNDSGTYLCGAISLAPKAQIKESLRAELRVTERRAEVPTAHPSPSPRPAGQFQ

Binder	Kd	koff	kon
N7NL (antibody, human IgG4 S228P, kappa, V domains shown, Full-length IgG4 from the pZRCIII hyg.IgG4 vector) VH: QVQLVESGGGVVQPGRSLRLDCKASGITFSNSGMHWVRQAPGKGLEWVAVIWYDGSKRYYADSVKGRFTISRDNSKNTLFLQMNSLRAEDTAVYYCATNSDYWGQGTLVTVSS VL: EIVLTQSPATLSLSPGERATLSCRASQSVSSYLAWYQQKPGQAPRLLIYDASNRATGIPARFSGSGSGTDFTLTISSLEPEDFAVYYCQQSSNWPRTFGQGTKVEIKR	0.0491 nM	9.54e-05 s⁻¹	1.95e+06 M⁻¹ s⁻¹
N5NL (antibody, human IgG4 S228P, kappa, V domains shown, Full-length IgG4 from the pZRCIII hyg.IgG4 vector. 'NSNL' in the text is an OCR form of N5NL; also called NSNL) VH: QVQLVESGGGVVQPGRSLRLDCKASGITFSNSGMHWVRQAPGKGLEWVAVIWYDGSKRYYADSVKGRFTISRDNSKNTLFLQMNSLRAEDTAVYYCATNSDFWGQGTLVTVSS VL: EIVLTQSPATLSLSPGERATLSCRASQSVSSYLAWYQQKPGQAPRLLIYDASNRATGIPARFSGSGSGTDFTLTISSLEPEDFAVYYCQQSSNWPRTFGQGTKVEIKR	0.075 nM	0.000151 s⁻¹	2.03e+06 M⁻¹ s⁻¹
N6NL (antibody, human IgG4 S228P, kappa, V domains shown, Full-length IgG4 from the pZRCIII hyg.IgG4 vector) VH: QVQLVESGGGVVQPGRSLRLDCKASGITFSNSGMHWVRQAPGKGLEWVAVIWYDGSKRYYADSVKGRFTISRDNSKNTLFLQMNSLRAEDTAVYYCATNSDHWGQGTLVTVSS VL: EIVLTQSPATLSLSPGERATLSCRASQSVSSYLAWYQQKPGQAPRLLIYDASNRATGIPARFSGSGSGTDFTLTISSLEPEDFAVYYCQQSSNWPRTFGQGTKVEIKR	0.0826 nM	0.000154 s⁻¹	1.86e+06 M⁻¹ s⁻¹
IP-H4L1 (IgG4) (antibody) heavy: not shown light: EIVLTQSPATLSLSPGERATLSCRASKGVSTSGYSYLHWYQQKPGQAPRLLIYLASYLESGVPARFSGSGSGTDFTLTISSLEPEDFAVYYCQHSRDLPLTFGGGTKVEIKRTVAAPSVFIFPPSDEQLKSGTASVVCLLNNFYPREAKVQWKVDNALQSGNSQESVTEQDSKDSTYSLSSTLTLSKADYEKHKVYACEVTHQGLSSPVTKSFNRGEC	0.0286 nM	5.36e-05 s⁻¹	1.87e+06 M⁻¹ s⁻¹
IP-H4L1 (IgG1) (antibody) heavy: not shown light: EIVLTQSPATLSLSPGERATLSCRASKGVSTSGYSYLHWYQQKPGQAPRLLIYLASYLESGVPARFSGSGSGTDFTLTISSLEPEDFAVYYCQHSRDLPLTFGGGTKVEIKRTVAAPSVFIFPPSDEQLKSGTASVVCLLNNFYPREAKVQWKVDNALQSGNSQESVTEQDSKDSTYSLSSTLTLSKADYEKHKVYACEVTHQGLSSPVTKSFNRGEC	0.0248 nM	5.21e-05 s⁻¹	2.12e+06 M⁻¹ s⁻¹
IP-H4.19L1 (antibody, human IgG4 S228P, kappa, V domains shown) VH: QVQLVQSGVEVKKPGASVKVSCKASGYTFTTYYIYWVRQAPGQGLEWMGGVNPSNSGTNYNENYKNRVTLTTDSSTTTAYMELKSLQFDDTAVYYCARRDYRYDMGFDYWGQGTTVTVSS VL: EIVLTQSPATLSLSPGERATLSCRASKGVSTSGYSYLHWYQQKPGQAPRLLIYLASYLESGVPARFSGSGSGTDFTLTISSLEPEDFAVYYCQHSRDLPLTFGGGTKVEIKR	0.0409 nM	6.28e-05 s⁻¹	1.54e+06 M⁻¹ s⁻¹
IP-H4.2L1 (antibody, human IgG4 S228P, kappa, V domains shown) VH: QVQLVQSGVEVKKPGASVKVSCKASGYTFTTYYIYWVRQAPGQGLEWMGGVNPSNGGTNYNENYKNRVTLTTDSSTTTAYMELKSLQFDDTAVYYCARRDYRYDMGYDYWGQGTTVTVSS VL: EIVLTQSPATLSLSPGERATLSCRASKGVSTSGYSYLHWYQQKPGQAPRLLIYLASYLESGVPARFSGSGSGTDFTLTISSLEPEDFAVYYCQHSRDLPLTFGGGTKVEIKR	0.0082 nM	1.37e-05 s⁻¹	1.67e+06 M⁻¹ s⁻¹
IP-H4.36L1 (antibody, human IgG4 S228P, kappa, V domains shown) VH: QVQLVQSGVEVKKPGASVKVSCKASGYTFTTYYIYWVRQAPGQGLEWMGGVNPSNGGTNYNQNYKNRVTLTTDSSTTTAYMELKSLQFDDTAVYYCARRDYRYDMGFDYWGQGTTVTVSS VL: EIVLTQSPATLSLSPGERATLSCRASKGVSTSGYSYLHWYQQKPGQAPRLLIYLASYLESGVPARFSGSGSGTDFTLTISSLEPEDFAVYYCQHSRDLPLTFGGGTKVEIKR	0.0317 nM	6.2e-05 s⁻¹	1.96e+06 M⁻¹ s⁻¹
